One may read the Kd as the constant that tells how readily two partners part at equilibrium. High values mean weaker binding, low ones tighter binding. The term koff denotes the rate constant with which the complex falls apart. Usually kon stands for the second-order rate constant of association.

The results in this text go back to patent US20210179715A1.

Assay [1] has as its target T1, 27mer cyno CD3 polypeptide conjugated to biotin (cynomolgus monkey).
T1 sequence (peptide, conjugated to biotin (site not stated)): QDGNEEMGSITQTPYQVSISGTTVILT
Put plainly: BIAcore T200 SPR; biotin 27mer CD3 peptide on SA chip; TDB flowed; 37 C. A general note: Surface plasmon resonance follows binding to a sensor surface in real time, without labels.

Assay [2] has the same target. Described as above. This is another data set of the same source.
Assay [3] deals with T2, human LY6G6D-Fc (human) (UniProt O95868).
T2 sequence: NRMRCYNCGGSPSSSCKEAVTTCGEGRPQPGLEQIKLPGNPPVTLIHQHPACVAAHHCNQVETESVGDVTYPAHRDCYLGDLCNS
The assay can be described thus: BIAcore SPR; LY6G6D-Fc on chip; TDB flowed; 37 C.

The target of assay [4] is cynomolgus LY6G6D-Fc (cynomolgus monkey). Put plainly: BIAcore SPR; LY6G6D-Fc on chip; TDB flowed; 37 C.
The target in assay [5] is T2, human LY6G6D-Fc (human). The assay can be described thus: BIAcore SPR; LY6G6D-Fc on chip; TDB flowed; 37 C. The source holds these as a separate data set.
In assay [6] the target is cynomolgus LY6G6D-Fc (cynomolgus monkey). The assay can be described thus: BIAcore SPR; two-cell TDB.
The target is the same in assay [7]. The assay can be described thus: BIAcore SPR; LY6G6D-Fc on chip; TDB flowed; 37 C. This is another data set of the same source.

Values joined by “and” are separate entries in the source; they are usually repeats but may differ in a detail not shown here. Identical values can stand only once. Like-named read-outs stand apart in the source and are kept apart here.

B1: LY6G6D TDB assembled using a one-cell system comprising the anti-LY6G6D 20A12.QNTv12 arm (one-cell) and the anti-CD3 38E4v1 (WT) arm (bispecific antibody, V domains shown)
VH 1: EVQLLESGGGLVQPGGSLRLSCAASGFDFVNNAMIWVREAPGKGLEWVSALSFADNTAYYATWASGRFTISRDSSKTTVYLQMNSLRAEDTAVYYCMRGDLWGPGTLVTVSS
VL 1: DIQMTQSPSTLSASVGDRVTITCQASESITRYLNWYQKKPGKAPKLLIYDASKLPSGVPSRFSGSGSGTEFTLTISSLQPDDFATYYCQSTSFRGRSYQNTFGGGTKVEIK
VH 2: EVQLVQSGAEVKKPGASVKVSCKASGFTFTSYYIHWVRKAPGQGLEWIGWIYPENDNTKYNEKFKDRVTITADTSTSTAYLELSSLRSEDTAVYYCARDGYSRYYFDYWGQGTLVTVSS
VL 2: DIVMTQSPDSLAVSLGERATINCKSSQSLLNSRTRKNYLAWYQEKPGQSPKLLIYWTSTRKSGVPDRFSGSGSGTDFTLTISSLQAEDVAVYYCKQSFILRTFGQGTKVEIK
For B1, in assay [1], the Kd was 15.4 nM and 16.5 nM; the koff is 0.0399 s⁻¹ and 0.0437 s⁻¹; the kon is 2.6e+06 M⁻¹ s⁻¹ and 2.65e+06 M⁻¹ s⁻¹. The molecule further displayed a Kd in assay [2] of 15.9 nM.

B2: LY6G6D TDB comprising the anti-LY6G6D 20A12.QNTv12 arm (two-cell) and the anti-CD3 40G5c arm (bispecific antibody, part only; not given: anti-CD3 arm and constant regions, V domains shown, part only)
VH: EVQLLESGGGLVQPGGSLRLSCAASGFDFVNNAMIWVRQAPGKGLEWVSALSFADNTAYYATWASGRFTISRDSSKTTVYLQMNSLRAEDTAVYYCMRGDLWGPGTLVTVSS
VL: DIQMTQSPSTLSASVGDRVTITCQASESITRYLNWYQQKPGKAPKLLIYDASKLPSGVPSRFSGSGSGTEFTLTISSLQPDDFATYYCQSTSFRGRSYQNTFGGGTKVEIK
B2 gave a koff with human LY6G6D-Fc (human) [3] of 0.000456 s⁻¹. In assay [4], the Kd turned out to be 4.91 nM, the koff was 0.000413 s⁻¹ and the on-rate (kon) was 84300 M⁻¹ s⁻¹. Also, in the assay with human LY6G6D-Fc (human) [5], the Kd was found to be 5.62 nM, the koff was 0.000453 s⁻¹ and the kon is 80600 M⁻¹ s⁻¹.

B3: LY6G6D TDB comprising the anti-LY6G6D 20A12.QNTv12 arm (two-cell) and the anti-CD3 38E4v1 arm (bispecific antibody, V domains shown)
VH 1: EVQLLESGGGLVQPGGSLRLSCAASGFDFVNNAMIWVRQAPGKGLEWVSALSFADNTAYYATWASGRFTISRDSSKTTVYLQMNSLRAEDTAVYYCMRGDLWGPGTLVTVSS
VL 1: DIQMTQSPSTLSASVGDRVTITCQASESITRYLNWYQQKPGKAPKLLIYDASKLPSGVPSRFSGSGSGTEFTLTISSLQPDDFATYYCQSTSFRGRSYQNTFGGGTKVEIK
VH 2: EVQLVQSGAEVKKPGASVKVSCKASGFTFTSYYIHWVRQAPGQGLEWIGWIYPENDNTKYNEKFKDRVTITADTSTSTAYLELSSLRSEDTAVYYCARDGYSRYYFDYWGQGTLVTVSS
VL 2: DIVMTQSPDSLAVSLGERATINCKSSQSLLNSRTRKNYLAWYQQKPGQSPKLLIYWTSTRKSGVPDRFSGSGSGTDFTLTISSLQAEDVAVYYCKQSFILRTFGQGTKVEIK
With B3, the Kd in assay [4] was 2.29 nM; in assay [1] it was 13 nM and 16.5 nM; in assay [6] it was 2.29 nM; in assay [7] it was 1.92 nM; in assay [2] it was 14.8 nM. In addition, the koff in assay [4] is 0.00038 s⁻¹; in assay [1] it was 0.0337 s⁻¹ and 0.0364 s⁻¹; in assay [7], 0.000444 s⁻¹. Also, the kon in assay [4] was 166000 M⁻¹ s⁻¹; in assay [1], 2.6e+06 M⁻¹ s⁻¹ and 2.21e+06 M⁻¹ s⁻¹; in assay [7], 231000 M⁻¹ s⁻¹.

B4: LY6G6D TDB comprising the anti-LY6G6D 1G4 arm and the anti-CD3 38E4.v1 arm (bispecific antibody, V domains shown)
VH 1: EVQLVQSGAEVKKPGASVKVSCKASGYTFTTYVMHWVRQAPGQGLEWMGYINPYNDGTKYNEKFKGRVTMTRDTSISTAYMELSRLRSDDTAVYYCGRRNFDYWGQGTLVTVSS
VL 1: DIVMTQSPDSLAVSLGERATINCKSSQSLLLSGNQENYLAWHQQKPGQPPKTLITWASTRISGVPDRFSGSGSGTDFTLTISSLQAEDVAVYYCQQSYSAPYTFGGGTKVEIK
VH 2: EVQLVQSGAEVKKPGASVKVSCKASGFTFTSYYIHWVRQAPGQGLEWIGWIYPENDNTKYNEKFKDRVTITADTSTSTAYLELSSLRSEDTAVYYCARDGYSRYYFDYWGQGTLVTVSS
VL 2: DIVMTQSPDSLAVSLGERATINCKSSQSLLNSRTRKNYLAWYQQKPGQSPKLLIYWTSTRKSGVPDRFSGSGSGTDFTLTISSLQAEDVAVYYCKQSFILRTFGQGTKVEIK
As for B4, in assay [4], the Kd is 13.1 nM, the koff was 0.00936 s⁻¹ and the kon amounted to 714000 M⁻¹ s⁻¹.

B5: LY6G6D TDB assembled using a one-cell system comprising the anti-LY6G6D 20A12.QNTv12 arm (one-cell) and the anti-CD3 38E4v1 MD4 arm (bispecific antibody, V domains shown)
VH 1: EVQLLESGGGLVQPGGSLRLSCAASGFDFVNNAMIWVREAPGKGLEWVSALSFADNTAYYATWASGRFTISRDSSKTTVYLQMNSLRAEDTAVYYCMRGDLWGPGTLVTVSS
VL 1: DIQMTQSPSTLSASVGDRVTITCQASESITRYLNWYQKKPGKAPKLLIYDASKLPSGVPSRFSGSGSGTEFTLTISSLQPDDFATYYCQSTSFRGRSYQNTFGGGTKVEIK
VH 2: EVQLVQSGAEVKKPGASVKVSCKASGFTFTSYYIHWVRKAPGQGLEWIGWIYPENDNTKYNEKFKDRVTITADTSTSTAYLELSSLRSEDTAVYYCARDGYSRYYFDYWGQGTLVTVSS
VL 2: DIVMTQSPDSLAVSLGERATINCKSSQSLLNSRTRKNYLAWYQEKPGQPPKLLIYWASTRKSGVPDRFSGSGSGTDFTLTISSLQAEDVAVYYCKQSFILRTFGQGTKVEIK
For B5, in assay [1], the Kd is 14 nM and 14.7 nM; the koff is 0.0433 s⁻¹ and 0.0426 s⁻¹; the kon is 3.09e+06 M⁻¹ s⁻¹ and 2.89e+06 M⁻¹ s⁻¹. In assay [7], this molecule showed a Kd of 2.62 nM, a koff of 0.000574 s⁻¹ and a kon of 219000 M⁻¹ s⁻¹. The molecule also gave a Kd in assay [2] of 14.4 nM.

B6: LY6G6D TDB assembled using a one-cell system comprising the anti-LY6G6D 20A12.QNTv12 arm (one-cell) and the anti-CD3 38E4v1 MD1 arm (bispecific antibody, V domains shown)
VH 1: EVQLLESGGGLVQPGGSLRLSCAASGFDFVNNAMIWVREAPGKGLEWVSALSFADNTAYYATWASGRFTISRDSSKTTVYLQMNSLRAEDTAVYYCMRGDLWGPGTLVTVSS
VL 1: DIQMTQSPSTLSASVGDRVTITCQASESITRYLNWYQKKPGKAPKLLIYDASKLPSGVPSRFSGSGSGTEFTLTISSLQPDDFATYYCQSTSFRGRSYQNTFGGGTKVEIK
VH 2: EVQLVQSGAEVKKPGASVKVSCKASGFTFTSYYIHWVRKAPGQGLEWIGWIYPENDNTKYNEKFKDRVTITADTSTSTAYLELSSLRSEDTAVYYCARDGYSRYYFDYWGQGTLVTVSS
VL 2: DIVMTQSPDSLAVSLGERATINCKSSQSLLNSRTRKNYLAWYQEKPGQPPKLLIYWASTRESGVPDRFSGSGSGTDFTLTISSLQAEDVAVYYCTQSFILRTFGQGTKVEIK
For B6, in assay [1], the Kd was 26.6 nM and 25.6 nM; the koff was 0.0383 s⁻¹ and 0.0376 s⁻¹; the kon was 1.44e+06 M⁻¹ s⁻¹ and 1.47e+06 M⁻¹ s⁻¹. In assay [7], this molecule gave a Kd of 3.63 nM, a dissociation rate constant (koff) of 0.000512 s⁻¹ and a kon of 141000 M⁻¹ s⁻¹. The molecule also came in with a Kd in assay [2] of 26.1 nM.
